The text below walks through data of patent US7211424B1, “Mammalian Subtilisin/kexin isozyme SKI-1: a proprotein convertase with a unique cleavage specificity” (Institut de Recherches Cliniques de Montreal, priority 1999, dated 2007).

Substrate in data set [1]: CC(C)C[C@H](NC(=O)[C@H](CO)NC(=O)[C@H](CCCNC(=N)N)NC(=O)[C@H](Cc1ccccc1)NC(=O)[C@@H](NC(=O)c1ccccc1N)C(C)C)C(=O)N[C@@H](CCCCN)C(=O)N[C@@H](Cc1ccc(O)cc1)C(=O)N[C@@H](C)C(=O)N[C@@H](CCC(=O)O)C(=O)N[C@@H](CO)C(=O)N[C@@H](CC(=O)O)C(=O)N[C@@H](Cc1ccc(O)c([N+](=O)[O-])c1)C(=O)N[C@@H](C)C(N)=O
Description: Hydrolysis of quenched fluorogenic substrates by shed-hSKI-1. It counts as biochemical, human. As to conditions: other: shed-hSKI-1; averages of duplicate assays; pH 6.5; 37.0 °C. As for the experimental part: (§1) For digestions, each peptide was typically reacted at 37° C. with 10 μl of the concentrated enzyme preparation in a buffer consisting of 50 mM HEPES (N-2-Hydroxyethyl piperazine-N′-2 EthaneSulfonic acid) (ICN Biomedicals Inc), 50 mM MES (2-[N-Morpholino] EthaneSulfonic acid) (Sigma Chem Co.), and 3 mM Ca^2+-acetate (pH 6.5). The digestion products were separated by RP-HPLC on a Beckman 5 μm Ultrasphere C18 column (0.2×25 cm) and eluted with a 1%/min linear gradient of aqueous 0.1% TFA/CH3CN ([…]) at a flow rate of 1 ml/min. The collected peptides were characterized by mass spectrometry and amino acid composition, which was also used to quantitate the amount of various substrates and products. The digestions of the quenched fluorogenic peptides were analyzed by RP-HPLC using a dual UV (210 nm) and fluorescence (excitation and emission wavelengths of 320 and 420 nm, respectively) detector (Rainin).
(§2) Km(app), Vmax(app) and Ki(app) determinations—Following digestion reactions with increasing substrate concentrations, the products were separated by RP-HPLC. The rate of substrate hydrolysis was obtained from the integrated peak areas of the chromatograms. Km(app) and Vmax(app) values were estimated using nonlinear regression analysis (Enzfitter software; Elsevier Biosoft, Cambridge, UK) of plots of the hydrolysis rate vs the substrate concentration. […] The Ki(app) values were estimated from Dixon plots as described (16). For the two quenched peptides, kinetic parameters were determined as described (17).

Substrate in data set [2]: CC(C)C[C@H](NC(=O)[C@H](CO)NC(=O)[C@H](CCCNC(=N)N)NC(=O)c1ccccc1N)C(=O)N[C@@H](CCCCN)C(=O)N[C@@H](Cc1ccc(O)cc1)C(=O)N[C@@H](C)C(=O)N[C@@H](CCC(=O)O)C(=O)N[C@@H](CO)C(=O)N[C@@H](CC(=O)O)C(=O)N[C@@H](Cc1ccc(O)c([N+](=O)[O-])c1)C(=O)N[C@@H](C)C(N)=O
The description is as above. It counts as biochemical, human. As to conditions: other: shed-hSKI-1; averages of duplicate assays; pH 6.5; 37.0 °C. The procedure: as §1, §2

Data set [3] deals with T1, peptide (x) SREBP-2 10 mer.
T1 chain: SGSGRSVLSFES

For data set [4], the target named is T2, peptide X, Q-hSKI-1 (132-142): Abz-VFRSLKYAESD-Y(NO2)-A.
T2 chain: XVFRSLKYAESDXA

Data set [5] concerns the target T3, peptide IX, hSKI-1 (128-142).
T3 chain: PQRKVFRSLKYAESD

Data set [6] addresses T4, peptide (iv) hSKI-1 (181-188+Glu).
T4 chain: SSRRLLRAIE

The target in data set [7] is T5, peptide III, hSKI-1(174-191).
T5 chain: WHATGRHSSRRLLRAIPR

Data set [8] has as its target T6, peptide IV, hSKI-1 (174-188+LE).
T6 chain: WHATGRHSSRRLLRALE

Data set [9] addresses T7, peptide XI, Q-hSKI-1 (134-142): Abz-RSLKYAESD-Y(NO2)-A.
T7 chain: XRSLKYAESDXA

For data set [10], the target named is T8, peptide II, hSREBP-2(504-530).
T8 chain: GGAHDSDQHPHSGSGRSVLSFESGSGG

Data set [11] addresses T9, peptide VIII, hSKI-1 (128-136).
T9 chain: PQRKVFRSL

Data set [12] concerns the target T10, peptide VI, hSKI-1 (156-172).
T10 chain: WQSSRPLRRASLSLGSG

For data set [13], the target named is T11, peptide VII, hSKI-1 (187-201).
T11 chain: RAIPRQVAQTLQADV

Data set [14] has as its target T12, peptide I, hproBDNF(50-63).
T12 chain: KAGSRGLTSLADTF

The target of data set [15] is cystatin.
Data set [16] deals with soya bean trypsin inhibitor.
Data set [17] concerns the target T13, peptide V, hSKI-1 (182-188+LE).
T13 chain: SRRLLRALE

B1: shed-hSKI-1 (Homo sapiens) (protein)
chain: RAIPRQVAQTLQADVLWQMGYTGANVRVAVFDTGLSEKHPHFKNVKERTNWTNERTLDDGLGHGTFVAGVIASMRECQGFAPDAELHIFRVFTNNQVSYTSWFLDAFNYAILKKIDVLNLSIGGPDFMDHPFVDKVWELTANNVIMVSAIGNDGPLYGTLNNPADQMDVIGVGGIDFEDNIARFSSRGMTTWELPGGYGRMKPDIVTYGAGVRGSGVKGGCRALSGTSVASPVVAGAVTLLVSTVQKRELVNPASMKQALIASARRLPGVNMFEQGHGKLDLLRAYQILNSYKPQASLSPSYIDLTECPYMWPYCSQPIYYGGMPTVVNVTILNGMGVTGRIVDKPDWQPYLPQNGDNIEVAFSYSSVLWPWSGYLAISISVTKKAASWEGIAQGHVMITVASPAETESKNGAEQTSTVKLPIKVKIIPTPPRSKRVLWDQYHNLRYPPGYFPRDNLRMKNDPLDWNGDHIHTNFRDMYQHLRSMGYFVEVLGAPFTCFDASQYGTLLMVDSEEEYFPEEIAKLRRDVDNGLSLVIFSDWYNTSVMRKVKFYDENTRQWWMPDTGGANIPALNELLSVWNMGFSDGLYEGEFTLANHDMYYASGCSIAKFPEDGVVITQTFKDQGLEVLKQETAVVENVPILGLYQIPAEGGGRIVLYGDSNCLDDSHRQKDCFWLLDALLQYTSYGVTPPSLSHSGNRQRPPSGAGSVTPERMEGNHLHRYSKVLEAHLGDPKPRPLPACPRLSWAKPQPLNETAPSNLWKHQKLLSIDLDKVVLPNFRSNRPQVRPLSPGESGAWDIPGGIMPGRYNQEV
notes: SKI-1 is further processed to remove the transmembrane domain that keeps it integrated in the ER membrane, which generates a SKI-1 soluble form; made in house; host or cells: HK293 cells stably transfected with full-length hSKI-1 in pcDNA3; shed enzyme in the medium
Consider B1, for which, in [1], the Michaelis constant (Km) worked out at 31.3 µM and the Vmax came out at 0.567 µmol/min. Further, in data set [2], the Km is 8.7 µM and the Vmax amounted to 0.948 µmol/min. In [3], the “cleavage of synthetic peptide (x): efficiently cleaved” value was “only the peptides (iii), (iv), (vii), (viii) (ix) and (x) are efficiently cleaved by the recombinant SKI-1”. In addition, the “kinetic parameters (Vmax/Km) relative to quenched peptide (b)” value in [4] is “this peptide is 6-fold more efficient that the nearest candidate quenched peptide (b)”. Besides, in data set [5], the “cleavage of synthetic peptide (vii): efficiently cleaved” value is “only the peptides (iii), (iv), (vii), (viii) (ix) and (x) are efficiently cleaved by the recombinant SKI-1”. Further, the “cleavage of synthetic peptide (iv): efficiently cleaved” value in data set [6] is “only the peptides (iii), (iv), (vii), (viii) (ix) and (x) are efficiently cleaved by the recombinant SKI-1”. Moreover, the “cleavage of synthetic peptide (ii): not efficiently cleaved” value in [7] was “only the peptides (iii), (iv), (vii), (viii) (ix) and (x) are efficiently cleaved by the recombinant SKI-1”. Further, the “cleavage of synthetic peptide (iii): efficiently cleaved” value in data set [8] is “only the peptides (iii), (iv), (vii), (viii) (ix) and (x) are efficiently cleaved by the recombinant SKI-1”. In addition, the “cleavage of quenched fluorogenic peptide (HPLC with UV and fluorescence detection)” value in [9] is “clearly revealed a single site of cleavage in peptides (a) and (b)”. For the same protein, in data set [10], the “cleavage of synthetic peptide (ix): efficiently cleaved” value was “only the peptides (iii), (iv), (vii), (viii) (ix) and (x) are efficiently cleaved by the recombinant SKI-1”. Moreover, in [11], the “cleavage of synthetic peptide (vi): not efficiently cleaved” value was “only the peptides (iii), (iv), (vii), (viii) (ix) and (x) are efficiently cleaved by the recombinant SKI-1”. Further, the “cleavage of synthetic peptide (i): not efficiently cleaved” value in data set [12] is “only the peptides (iii), (iv), (vii), (viii) (ix) and (x) are efficiently cleaved by the recombinant SKI-1”. Further, the “cleavage of synthetic peptide (v): not efficiently cleaved” value in data set [13] was “only the peptides (iii), (iv), (vii), (viii) (ix) and (x) are efficiently cleaved by the recombinant SKI-1”. For the same protein, the “cleavage of synthetic peptide (viii): efficiently cleaved” value in [14] is “only the peptides (iii), (iv), (vii), (viii) (ix) and (x) are efficiently cleaved by the recombinant SKI-1”.

B2: BTMD-SKI-1 (protein)
chain: RAIPRQVAQTLQADVLWQMGYTGANVRVAVFDTGLSEKHPHFKNVKERTNWTNERTLDDGLGHGTFVAGVIASMRECQGFAPDAELHIFRVFTNNQVSYTSWFLDAFNYAILKKIDVLNLSIGGPDFMDHPFVDKVWELTANNVIMVSAIGNDGPLYGTLNNPADQMDVIGVGGIDFEDNIARFSSRGMTTWELPGGYGRMKPDIVTYGAGVRGSGVKGGCRALSGTSVASPVVAGAVTLLVSTVQKRELVNPASMKQALIASARRLPGVNMFEQGHGKLDLLRAYQILNSYKPQASLSPSYIDLTECPYMWPYCSQPIYYGGMPTVVNVTILNGMGVTGRIVDKPDWQPYLPQNGDNIEVAFSYSSVLWPWSGYLAISISVTKKAASWEGIAQGHVMITVASPAETESKNGAEQTSTVKLPIKVKIIPTPPRSKRVLWDQYHNLRYPPGYFPRDNLRMKNDPLDWNGDHIHTNFRDMYQHLRSMGYFVEVLGAPFTCFDASQYGTLLMVDSEEEYFPEEIAKLRRDVDNGLSLVIFSDWYNTSVMRKVKFYDENTRQWWMPDTGGANIPALNELLSVWNMGFSDGLYEGEFTLANHDMYYASGCSIAKFPEDGVVITQTFKDQGLEVLKQETAVVENVPILGLYQIPAEGGGRIVLYGDSNCLDDSHRQKDCFWLLDALLQYTSYGVTPPSLSHSGNRQRPPSGAGSVTPERMEGNHLHRYSKVLEAHLGDPKPRPLPACPRLSWAKPQPLNETAPSNLWKHQKLLSIDLDKVVLPNFRSNRPQVRPLSPGESGAWDIPGGIMPGRYNQEHHHHHH
In the case of B2, the “cleavage of synthetic peptide at K137↓” value in data set [5] is “the PQRKVFRSLK^137↓YAESD (SEQ. ID. NO. 45) cleavage was only seen in SKI-1-containing medium”. Further, the “cleavage of synthetic peptide (RP-HPLC, mass spectrometry)” value in [7] is “the only one with detectable cleavage by SKI-1-containing concentrated medium ... was peptide III”. Also, in data set [8], the Km(app) is 17 µM; the Vmax(app) is 0.4 nmol/h; the Vmax(app)/Km(app) was found to be 0.023 h^-1L^-1; the “Vmax(app)/Km(app) relative to peptides I and II” value is 5-10-fold higher than those obtained with peptides I and II. Also, the “cleavage of synthetic peptide” value in data set [8] was “this change significantly improved the processing of these peptides”. For the same protein, in data set [15], the Hydrolysis of SREBP-2 peptide (% of control) at 0.01 mM cystatin is 100 % of control. Also, the Hydrolysis of SREBP-2 peptide (% of control) at 0.5 mg/ml SBTI in data set [16] was 100 % of control. In addition, in data set [10], the Km(app) amounted to 124 µM; the Vmax(app) was 0.5 nmol/h; the Vmax(app)/Km(app) amounted to 0.004 h^-1L^-1; the “cleavage of synthetic peptide (RP-HPLC, MALDI-TOF)” value is “The expected cleavages were confirmed and did not occur using WT-/empty vector-derived media”. Also, the “cleavage of synthetic peptide” value in [11] is “^2Cleavage detected but not attributable to SKI-1”. Moreover, the “cleavage of synthetic peptide” value in data set [12] is “^1No cleavage detected even with a 10-fold excess of enzyme”. Also, the “cleavage of synthetic peptide” value in data set [13] was “^1No cleavage detected even with a 10-fold excess of enzyme”. For the same protein, in [17], the Km(app) is 109 µM, the Vmax(app) was 1.1 nmol/h, the Vmax(app)/Km(app) came out at 0.01 h^-1L^-1 and the “catalytic efficiency relative to peptide IV” value is “caused a 4-fold reduction in catalytic efficiency”. For the same protein, in data set [17], the “cleavage of synthetic peptide” value was “this change significantly improved the processing of these peptides”; the difference in Vmax(app)/Km(app) between peptides IV and V is 2 fold. In addition, in data set [14], the Km(app) was 169 µM; the Vmax(app) was determined as 0.4 nmol/h; the Vmax(app)/Km(app) came out at 0.002 h^-1L^-1; the “cleavage of synthetic peptide (RP-HPLC, MALDI-TOF)” value was “The expected cleavages were confirmed and did not occur using WT-/empty vector-derived media”.

As usually defined, the Km is the substrate concentration at which the rate is half of its maximum. For orientation: Vmax means the rate approached at saturating substrate.
